This note sets out measurements from the DeepSol protein solubility set.

This data set is described as follows: soluble on expression in E. coli; label from the status in PepcDB or PDB records.
Regarding “MFNTTPINIDKWLKENEGLLKPPVNNYCLHKGGFTVMIVGGPNERTGYHINPTPEWFYQKKGSMLLKVVDETDAEPKFIDIIINEGDSYLLPGNVPHSPVRFADTVGIVVEQDRPGGENDKIRWYCSHCRQVVHESELQMLDLGTQVKEAILDFENDVEKRTCFHCKTLNYARPQSN”, the “soluble on expression in E. coli” value is recorded as “soluble”.
For the sequence “GPGSMSAVASDDSAGHVVDPVQHTHRYVQEHRLNELFGHLLQLVLYHRPDDPRAFLAEEVRKIREEKVSLSLFTERDLETMFEMIDATAQRWITVAQLRNTCRNLATASSAGNVSTGGGDLTAEQEAAIAGAGDAAGRVTMDKFKEVLSSLLLTKNKWS”, the “soluble on expression in E. coli” value is given as “soluble”.
As for “MGSDKIHHHHHHMLQLSEFEPEVLYAFPFRNEHPGTYVYHQHDFLELSIMLEGYSDYNVEGQWRRVVAGQALLFNPGIHHQETQPPHTQSLQLHIGFRHIALPGQVPNHLPFKDALISLDDYRAEFMANAQRIVAESQRPTAFGHALLIQAMVIEQLCWLLRSLPENSVSNDYTELHQGNVSRDQQALVNAATYYLDVHYNEDLTLGTVAASLHVSAAYLSRTFKAIQGETPISYLTRLRMQRAKQLLMQEAITVRQVAHAVGYQDPYYFSKVFKRYFGAAPTLIER”, the entry is “not soluble”; as for “NRLKDSKAKSRVVILLTDGSNNMGDITPRMAADIARTFGIRVYTVGVGTRGEAPFPIQTEFGVRIQNVPVDIDEPTLDGIAEVSGGKYFRAVDNETLNEIYKEIDKLEKTRLMTKSFKAYEEK”, “not soluble”.
With “IQQHSTDIETPTGTMRTYVYRPQASGKFPTIIFYSEIFQQTAPIARTAALMAGHGFVVLVPEVFHELNPIGTVLGYDDAGKDKGNQDKWAKPLEHHDSDTQALVNFIQQQDYCSGKIGTMGVCIGGHLAYRAALNKSVLAAACLYATDIHSGDLPSAEGNDSLTRTKDISAELMMIWGKQDPHIPDEGRMMIHKNLIASGNLFSWHEFNASHAFMRDEGERYDPQLALRVYGMSVELFNRTL”, the “soluble on expression in E. coli” value is on record as “not soluble”.
Regarding “MGSDKIHHHHHHMHHSHHLEIYEKLREKLNKAPIGLPKTVSGVEKELLSVLFDEEEAKIAVHMPFIRFTAEQLAERTGKSLEYVEKILNEMAKKGTVWKGEKDGQTYYRLFPVIVGFAETPFWPGPGKDPRQEKLARLWSQYRKEGFLDEIGDREHPIMRALPERDTISEKSEILPYEDAVKLVKERDYIAVGYCPCRVMARLVGEGCRHSIENCIHMGSVGKYMVEHGLGRRISADEAIEILRQSNREGLVHLTERSKHVATICNCCSDCCVFFKAVHEAKHPNTIAHSSYLATVDTSRCIACGICMLRCPMKAIKAKINREPASVDAEKCLGCGVCVPTCPMEAIELVERDELLELPDGMTYVQELLADKGRDPSGLF”, the “soluble on expression in E. coli” value is given as “not soluble”.
Regarding “MGRSQATAESYRDSLTIFKNYLVGELGKSISTFQFSDCTKECIYNFREYLLANGSQPSTVNVRVAAIRAYLNYASDMDISVQSVALAISQISPCLEHHHHHH”, the “soluble on expression in E. coli” value was “not soluble”.
With “SSEQAIIVSAINHSLAQFSCHLIDGVTGSGKTEVYLQSMEEVLANNQQVLVIVPEIGLTPQTLNRFEQRFNVPIALHHSGLNDKERLATWLSAQQGSAAIVIGTRSAVFTPLHRLGLIIIDEEHDSSLKQQDSFRYHCRDMAILRARQLNIPIVLGTATP”, the “soluble on expression in E. coli” value is recorded as “not soluble”.
For the sequence “MYPDDSLTLHTDLYQINMMQVYFDQGIHNKKAVFEVYFRQQPFKNGYAVFAGLERIVNYLEDLRFSDSDIAYLESLGYHGAFLDYLRNFKLELTVRSAQEGDLVFANEPIVQVEGPLAQCQLVETALLNIVNYQTLVATKAARIRSVIEDEPLMEFGTRRAQEMDAAIWGTRAAVIGGANGTSNVRAGKLFDIPVLGTHAHALVQVYGNDYEAFKAYAATHKNCVFLVDTYDTLRIGVPAAIQVARELGDQINFMGVRIDSGDIAYISKKVRQQLDEAGFTEAKIYASNDLDENTILNLKMQKAKIDVWGVGTKLITAYDQPALGAVYKIVAIEDETGQMRNTIKLSNNAEKVSTPGKKQVWRITSREKGKSEGDYITYDGVDISDMTEIKMFHPTYTYIKKTVRNFDAVPLLVDIFKEGILVYNLPSLTDIQDYARKEFDKLWDEYKRVLNPQHYPVDLARDVWQDKMDLIDKMRKEALGEGEEE”, the “soluble on expression in E. coli” value was “not soluble”.
Regarding “MAESVNLVCTFCGSVCDDGQFDVEQFKSKKLCKLGSAKFSKKERIKAPMIDGKEVSYEEAIEKAAEILVNAKKPLLYGWASTVNEAIRLGVILTEKVGGVYDQCASVCHAPGTLAVIEEGLPGGTLGAIKNRADVVVFWGANPMEAHPRHGMRYSISAKGLLIKDRKQRKVIVVDVRPTKTAKLADEFIQIKPGYDYPIISALRAIISGNADAVPDEVGGVSKEKLVELAETMKNAKYGAVLYGLGVTQSRGRDRNVENAVKLIQLLNRHTRWVIWPMRGHYNVVGAGEVPAWEVGYQYAIDFSRGYPRFSPAEFSAVEVLKRKDCDAALIIASDPVAHFPRAAVKHLKEIPVIQIDPFPNMTTLVANVVIPSAVAGLEAEGTAYRMDGIALRVKKVVESSYWSDEQILEKLLEKVEELKG”, the “soluble on expression in E. coli” value was “not soluble”.
As for “MAHHHHHHMRLHLPGRRDTRTASTGSSPVASLFLQKPIIFRKVAHGSASTILNVKRLELVLLETQSDQGKSEPDIQRLHWLTPHKLHQVHNDRITTATLQKNKVHSGYQFVLHIVQVSLEFLYRQKKAIILQLAERTLHERIFGGAKQLYHHQRAAGGGGK”, the “soluble on expression in E. coli” value is reported as “not soluble”.
Consider “MTKQLVLFCDFDGTITENDNIIAIMKQFAPPEWEALKDDILAERISVQEGVGKMFSLLPSSLKGEIIDFLRRTTRLRAGFREFVAFTKERGIPLYIVSGGIDFFVYPLLEGLIEPERIFCNGSDFSGETIRITWPHACDGECQNGCGCCKPSLLRKLARPDGYHVVIGDSITDLAVAKQADYVMARDFLLQKCQELGLPHAPFATFFDVIDALQRMEVIV”, for which the “soluble on expression in E. coli” value is given as “soluble”.
Regarding “MCIGMDIRDFFAQSAGRWFSQRTSHHLAFKQTESGKSQLTIELLSVDDPAVIALCQQYDMDPAWAVCGARVSWDGTMEWDNEKHEGSTVLVPIMDQGSRMEGKLLREMGYAEKAPVAGRFSMGSDGALTLITEYETIYSEERLWFASPNLRLRTSILKRFGGFSMASFCSEIRLGVTQPANSLEHHHHHH”, the “soluble on expression in E. coli” value is recorded as “soluble”.
As for “MAHHHHHHMGNTGVPSFVSTLGPPPPINLFKECQSPLTSGFSSWASFHWILLSDAFSHYYRPLECQTFYGCNFQKQLDAAANYNSFWPHHSRRLEAIRSNTPEQLCITSLHPPSRSPLTQQFPSGSFTQSPYGCRPRSLPCTAPQQWQMHRRSLQQGREHEAGRLLQQPLSFSLI”, the entry is “not soluble”.
On to “MAHHHHHHMRRSLVFPPCHLQEARLLQSQQLFGWYHQTRHFTSLVDRLSTGVARKLSSLTETHMMPLSEKHITEPRRPYPKRPSMQENLAERLAEQRRWRSRVVPQQIILSKDKLYIEFVWSAATLSAAAAREMRQQQNNEEENGDGCTQKRKGISCGSFANDGIIKSEKLMSHRTRFLAEFLRAYSPSTDVIGADALIYGRRGITITDVIPVGNYALRIVFSDGHSGGIYPYEYLFHLGQCKYTKMREYIRRLREKRKSRDPPKRVPSKYVPRGRNAAEGTPKRDKTDDCGHRVAAK”, for which the “soluble on expression in E. coli” value was “not soluble”.
As for “EFELKDFHVDYSISHPQSQHIQIIVCFKAQDKHEANAGRYRRIKPAWCTTEDGEHVIYYRISASRVDHDITTKYAFLDRDGKPKQIHHSEKLAVELMTLHPVIRLRDSRRFPRPSHINGDSKNARIEKRINNTCRRLLAMPGHVNKGEIRSSLDAMKTLVEHYFAFRSIGKGNPRKPRDGLFYTSPSSDKGLSQYLKETNDKQSRLLLMGLLSAYLQAKGPTDLRRCARPILIIEDPEGRLHPTHLARAWSLLQLLPMQK”, the entry is “not soluble”; as for “ADPDVLTEVPAALKRLAKYVIRGFYGIEHALALDILIRNSCVKEEDMLELLKFDRKQLRSVLNNLKGDKFIKCRMRVETAADGKTTRHNYYFINYRTLVNVVKYKLDHMRRRIETDERDSTNRASFKCPVCSSTFTDLEANQLFDPMTGTFRCTFCHTEVEEDESAMPKKDARTLLARFNEQIEPIYALLRETEDVNLAYEILEPEPTEIPALKQSKDHAATTAGAASLAGGHHREAWATKGPSYEDLYTQNVVINMDDQEDLHRASLEGKSAKERPIWLRESTVQGAYGSEDMKEGGIDMDAFQEREEGHAGPDDNEEVMRALLIHEKKTSSAMAGSVGAAAPVTAANGDDSESETSESDDDSPPRPAAVAVHKREEDEEEDDEFEEVADDPIVMVAGRPFSYSEVSQRPELVAQMTPEEKEAYIAMGQRMFEDLFE”, “not soluble”.
